From patent publication US20240293457A1 (Innovent, published 2024)

Biological target: T1, human CLDN18.2 on tumor cells (NUGC-4, KATO III-hCLDN18.2, DAN-G-hCLDN18.2) (human, UniProt P56856-2 1-261)
T1 construct: whole, on cells; also called Claudin18.2; DNA-G cells overexpressing Claudin18.2
Experiment: FACS binding to NUGC-4 gastric cancer cells (MFI vs Log [Conc(nM)])

- EC50: 1.05 nM
B1: HB37A6 (antibody, human IgG1, kappa, V domains shown)
VH: EVQLLDSGGGLVQPGGSLRLSCAASGFTFSSYVMSWVRQAPGKGLNWVSTISHSGGSTYYADSVKGRFTISRDNSKNTLYLQMNSLRAEDTAVYYCAIDAPYYDILTGYRYWGQGTLVTVSS
VL: not shown
notes: Fully human; expressed in HEK293 cells as a full-length human IgG1 kappa monoclonal antibody
